Measured values from patent US9724388B2, “FGF-18 compound dosing regimen” (MERCK PATENT GMBH, priority 2014, dated 2017).
“Also recorded” adds a separate entry of the source.

Legend:
[1] = tested on: ACLT+tMx model of instability-induced OA; experiment: ACLT+tMx rat OA model, neo-formation of cartilaginous tissue (Safranin-O quantification); format: in vivo; details: for dose at which dose-dependent neo-formation of cartilaginous tissue became significant, medial tibia: FIG. 2b
Experimental: The anterior cruciate ligament transection with resection of the medial meniscus (ACLT+tMx) model of instability-induced OA was performed in male Lewis rats 10-15 weeks of age. Briefly, under anesthesia with isoflurane, the joint capsule of the right knee of each rat was opened, the anterior cruciate and meniscus fixating ligaments were sharply transected, the meniscus was removed and the capsule, muscles and skin closed by sutures. Animals were randomly allocated into 10 groups of n=10 each. The following dosages were investigated: 0, 0.3, 1, 3 and 10 μg per intra-articular injection. Groups 1-5 received one cycle of three single injections at weekly intervals, group 6-10 three single injections at monthly intervals. Intra-articular treatment was started three weeks post-surgery. At this time pathophysiological changes are already mainifest, e.g., cartilage matrix loss. Animals were euthanized 17 weeks after surgery and joints were investigated.

[2] = tested on: rat model of OA (ACLT with tMx); experiment: ACLT+tMx rat OA model, intracycle dosing frequencies of sprifermin; format: in vivo
Experimental: The goal of this study was to evaluate the effect of different intracycle dosing frequencies of the same total dosage (3×1 μg) of sprifermin on cartilage volume in a rat model of OA. The anterior cruciate ligament transection (ACLT) with resection of the medial meniscus (tMx) was performed as disclosed in example 1. Joints from male Lister Hooded Rats (200-260 g, Charles River) were used in this study. Animals were euthanized 18 weeks post-surgery.
The changes in the joint are related to clinical assessments in OA (cartilage loss, osteophytes, subchondral sclerosis). One μg sprifermin in saline was injected three times either weekly, every 2nd, every 3rd, every 4th or every 5th week and compared to appropriate vehicle groups. Body weight, joint diameters and clinical health scores were investigated weekly.

B1: trFGF-18: recombinant truncated form of human FGF-18 (170 amino acids, SEQ ID NO: 2), produced in E. coli (protein)
chain: MEENVDFRIHVENQTRARDDVSRKQLRLYQLYSRTSGKHIQVLGRRISARGEDGDKYAQLLVETDTFGSQVRIKGKETEFYLCMNRKGKLVGKPDGTSKECVFIEKVLENNYTALMSAKYSGWYVGFTKKGRPRKGPKTRENQQDVHFMKRYPKGQPELQKPFKYTTVTK
modifications: Recombinant truncated FGF-18(trFGF-18)
Q: B1 was tested. Which “dose at which dose-dependent neo-formation of cartilaginous tissue became significant, lateral tibia” value ([1]; independently of the injection regimen (3 i.a. injections weekly or monthly), FIG. 2a) did it give?
A: Its value is 1 μg/joint.

Q: And the “dose at which dose-dependent neo-formation of cartilaginous tissue became significant, medial tibia” value ([1]; one monthly regimen)?
A: The value was 0.3 μg/joint.

Q: And the “dose at which dose-dependent neo-formation of cartilaginous tissue became significant, medial tibia” value ([1]; one weekly regimen)?
A: Its value is 1 μg/joint.

Q: What about the “cartilage volume on medial tibia (FIG. 9)” value ([2]; 1 μg/joint once every 3rd week, three injections, listed as rhFGF-18) of the same molecule?
A: Its value is “pharmacologically meaningful and statistically significant difference over saline; also recorded: most beneficial structural outcome”.

Q: What about the body weight gain ([2]; 3 x 1 μg intra-articular injections) of the same molecule?
A: The body weight gain was “no influence”.

Q: And the “cartilage denudation (stereology)” value ([2]; 3 x 1 μg/joint)?
A: The value was “prevented more or less complete cartilage denudation”.

Q: What about the cartilage volume ([2]; all groups treated with rhFGF-18) of the same molecule?
A: The cartilage volume was “higher cartilage volume values compared to placebo”.

Q: And the “AUC of joint diameters” value ([2]; injected every fifth week)?
A: The value was “the same as with saline injections”.

Q: What about the “joint diameters, differences between regimens” value ([2]; injections every 2nd, 3rd or 4th week) of the same molecule?
A: The value was “No significant differences”.

Q: And the “joint diameters (AUC, FIG. 8)” value ([2]; injections in week 3, 4 and 5 vs injections in week 3, 8 and 13)?
A: Its value is “significantly higher”.
